PMC3954793, “SHP-2 Binds to Caveolin-1 and Regulates Src Activity via Competitive Inhibition of CSK in Response to H2O2 in Astrocytes” (PLoS ONE, 2014)

Assays:
SHP-2 = SHP-2 (UniProt Q06124); test: PepSPOT peptide array overlay; conditions: reference: nonphosphorylated 13-mer peptides; sites Y14
CSK = CSK (UniProt P41240); test: PepSPOT peptide array overlay; conditions: reference: nonphosphorylated 13-mer peptides; sites Y14

binding against the reference (SHP-2): stronger | binding against the reference (CSK): stronger
Substance: caveolin-1 13-mers within 1-28 (from UniProt Q03135) pY14 13-mer peptides
